Experimental data published in PMC8034623.
Like-named read-outs stand apart in the source and are kept apart here.

What was measured:
Assay in all cases: EMSA
LuxR R11A = molecular target: T1, LuxR R11A (Vibrio alginolyticus, UniProt B4X9Q4 1-204, R11A)
T1 sequence: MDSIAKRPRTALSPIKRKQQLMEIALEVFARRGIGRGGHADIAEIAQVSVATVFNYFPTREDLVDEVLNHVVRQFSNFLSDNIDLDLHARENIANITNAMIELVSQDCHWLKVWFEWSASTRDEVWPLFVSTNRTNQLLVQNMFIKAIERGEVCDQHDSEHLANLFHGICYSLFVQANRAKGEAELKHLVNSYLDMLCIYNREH

LuxR R9A = molecular target: T2, LuxR R9A (Vibrio alginolyticus, UniProt B4X9Q4 1-204, R9A)
T2 sequence: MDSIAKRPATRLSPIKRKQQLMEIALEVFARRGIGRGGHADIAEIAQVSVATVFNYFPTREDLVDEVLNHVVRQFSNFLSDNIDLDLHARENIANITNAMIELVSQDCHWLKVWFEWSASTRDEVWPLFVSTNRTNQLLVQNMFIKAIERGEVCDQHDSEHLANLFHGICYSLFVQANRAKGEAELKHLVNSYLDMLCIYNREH

LuxR ΔLuxR-arm = molecular target: T3, LuxR ΔLuxR-arm (Vibrio alginolyticus, UniProt B4X9Q4 12-204, del2-11)
T3 sequence: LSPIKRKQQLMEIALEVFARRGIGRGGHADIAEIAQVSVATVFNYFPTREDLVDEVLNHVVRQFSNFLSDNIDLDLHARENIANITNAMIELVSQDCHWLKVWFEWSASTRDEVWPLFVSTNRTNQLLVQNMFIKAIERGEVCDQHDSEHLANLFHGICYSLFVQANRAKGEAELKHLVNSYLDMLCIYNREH

LuxR [1] = molecular target: T4, LuxR (Vibrio alginolyticus, UniProt B4X9Q4 1-204)
T4 sequence: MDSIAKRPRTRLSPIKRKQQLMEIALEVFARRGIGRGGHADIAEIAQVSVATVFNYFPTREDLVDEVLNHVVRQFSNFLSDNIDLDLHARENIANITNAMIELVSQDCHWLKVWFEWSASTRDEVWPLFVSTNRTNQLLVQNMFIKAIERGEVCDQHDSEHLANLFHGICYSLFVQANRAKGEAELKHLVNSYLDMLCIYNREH

LuxR R9/11A = molecular target: T5, LuxR R9/11A (Vibrio alginolyticus, UniProt B4X9Q4 1-204, R9A;R11A)
T5 sequence: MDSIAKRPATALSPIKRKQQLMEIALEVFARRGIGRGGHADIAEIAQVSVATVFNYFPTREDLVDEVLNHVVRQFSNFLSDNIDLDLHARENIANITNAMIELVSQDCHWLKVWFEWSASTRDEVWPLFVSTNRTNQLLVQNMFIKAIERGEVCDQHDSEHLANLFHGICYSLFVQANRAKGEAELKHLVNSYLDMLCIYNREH

LuxR K16A = molecular target: T6, LuxR K16A (Vibrio alginolyticus, UniProt B4X9Q4 1-204, K16A)
T6 sequence: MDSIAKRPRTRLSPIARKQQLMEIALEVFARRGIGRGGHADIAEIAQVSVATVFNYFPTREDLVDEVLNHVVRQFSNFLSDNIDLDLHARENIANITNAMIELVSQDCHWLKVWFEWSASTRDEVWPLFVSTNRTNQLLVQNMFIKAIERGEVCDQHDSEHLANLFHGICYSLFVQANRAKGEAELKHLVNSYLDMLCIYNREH

LuxR [2] = molecular target: T4, LuxR; remark: listed apart in the source
LuxR [3] = molecular target: T4, LuxR; remark: listed apart in the source

B1: actDNA 51-bp probe (dsDNA)
DNA 1: CTAAATTTATCAATAATAATGACATTACTGTATATAAATTGTTCTACAGAT
DNA 2: ATCTGTAGAACAATTTATATACAGTAATGTCATTATTATTGATAAATTTAG
binding result (LuxR R11A): no binding | Kd (LuxR R9A): 698 nM | binding result (LuxR ΔLuxR-arm): no binding | Kd (LuxR [1]): 449 nM | binding result (LuxR R9/11A): no binding | Kd (LuxR K16A): 329 nM

B2: AM2 (A4T, T18A) (dsDNA)
DNA 1: CTAAATTTATCAATAATATTGACATTACTGTAAATAAATTGTTCTACAGAT
DNA 2: ATCTGTAGAACAATTTATTTACAGTAATGTCAATATTATTGATAAATTTAG
binding result (LuxR [2]): binds

B3: AM3 (T18A) (dsDNA)
DNA 1: CTAAATTTATCAATAATAATGACATTACTGTAAATAAATTGTTCTACAGAT
DNA 2: ATCTGTAGAACAATTTATTTACAGTAATGTCATTATTATTGATAAATTTAG
binding result (LuxR [2]): binds

B4: AM4 (A17C, T18A) (dsDNA)
DNA 1: CTAAATTTATCAATAATAATGACATTACTGTCAATAAATTGTTCTACAGAT
DNA 2: ATCTGTAGAACAATTTATTGACAGTAATGTCATTATTATTGATAAATTTAG
binding result (LuxR [2]): binds

B5: AM5 (A1T, A4T, A22T) (dsDNA)
DNA 1: CTAAATTTATCAATATTATTGACATTACTGTATATATATTGTTCTACAGAT
DNA 2: ATCTGTAGAACAATATATATACAGTAATGTCAATAATATTGATAAATTTAG
binding result (LuxR [3]): binds

B6: AM6 (A4T) (dsDNA)
DNA 1: CTAAATTTATCAATAATATTGACATTACTGTATATAAATTGTTCTACAGAT
DNA 2: ATCTGTAGAACAATTTATATACAGTAATGTCAATATTATTGATAAATTTAG
binding result (LuxR [3]): binds

B7: GC-rich control 51-bp (dsDNA)
DNA 1: CTAAATTTATCAATACCGCGTCACGGAGGGGTGCGCCATTGTTCTACAGAT
DNA 2: ATCTGTAGAACAATGGCGCACCCCTCCGTGACGCGGTATTGATAAATTTAG
binding result (LuxR [1]): no binding

B8: repDNA 51-bp probe (dsDNA)
DNA 1: CTAAATTTATCAATATTATTGATAAAATTATCAATATATTGTTCTACAGAT
DNA 2: ATCTGTAGAACAATATATTGATAATTTTATCAATAATATTGATAAATTTAG
Kd (LuxR R11A): 1060 nM | Kd (LuxR R9A): 434 nM | Kd (LuxR [1]): 157 nM

B9: AM1 (T2A) (dsDNA)
DNA 1: CTAAATTTATCAATAAAAATGACATTACTGTATATAAATTGTTCTACAGAT
DNA 2: ATCTGTAGAACAATTTATATACAGTAATGTCATTTTTATTGATAAATTTAG
Kd (LuxR [1]): 1690 nM

B10: AM7 (A3C) (dsDNA)
DNA 1: CTAAATTTATCAATAATCATGACATTACTGTATATAAATTGTTCTACAGAT
DNA 2: ATCTGTAGAACAATTTATATACAGTAATGTCATGATTATTGATAAATTTAG
Kd (LuxR [1]): 636 nM
